Values quoted from earlier work in publication PMC4209448 (Scientific Reports, 2014).

Settings: C57BL/6 mice

Aβ(1–40): amyloid-β(1–40) peptide whose CSF-to-blood efflux half-time is quoted from the literature
Half-time of efflux from the CSF to blood: 34.63 ± 3.6 min
